Measurements reported in patent US5885961A, “Methods of using epithelins to modulate cell proliferation” (Bristol-Myers Squibb Company, priority 1995, dated 1999).
“Also recorded” adds a separate entry of the source. Like-named read-outs stand apart in the source and are kept apart here.

Key:
[1] = system: NRK-SA6 cells; assay: Soft agar colony assay in the presence of TGFβ; type: cell-based, rat; details: in the presence of TGFβ 1 ng/ml, FIG. 17
Protocol: FIG. 17. Effect of epithelin 1 and 2 on NRK-SA6 cell colony formation in soft agar in the presence of TFGβ (1 ng/ml). The colony formation assay used is described in Section 6.2.3, infra. Solid bars, epithelin 1; stippled bar, epidermal growth factor; open bar, epithelin 2; hatched bar, 20 ng/ml epithelin 1 plus 500 ng/ml epithelin 2.
A 0.38 ml base layer of 0.5% agar (Agar Noble; Difco Laboratories, Detroit, Mich.) in DMEM containing 10% heat inactivated FBS was added to 24 well Costar tissue culture plates. 0.38 ml of 0.3% agar containing the same medium-FBS mixture, 6-12×10^3 test cells, and the test proteins at various concentrations were overlaid on the basal layer of agar. The plates were incubated at 37° C. in a humidified atmosphere of 5% CO2 in air. Colonies were enumerated unfixed and unstained, and the number of colonies was scored between days 7 and 10. Colonies were defined as a cluster of at least eight cells.

[2] = system: Balb/MK cells; assay: Murine keratinocyte growth assay (cell count); type: cell-based; details: FIG. 16A
Protocol: FIG. 16(A-B). (FIG. 16A) Effect of epithelin 1 and epidermal growth factor (EGF) on the growth of Balb/MK cells. Assays were performed as described in Section 6.2., infra. .circle-solid., epithelin 1; o, EGF (FIG. 16B) Effect of various concentrations of epithelin 2 on the epithelin 1 (20 ng/ml) induced growth of murine keratinocytes.
Balb/MK cells were plated at 1×10^4 cells per well in 1 ml of low calcium medium (Weissman and Aaronson, 1983, Cell 32:599-606; Carpenter and Zendegut, 1985, Anal. Biochem. 153:279-282) in 24-well Costar plates and incubated at 37° C. for 4-6 hours. Then media were removed and replaced with 1 ml of medium containing various concentrations of the test compound in triplicate. The control wells received only medium without any test material. The plates were incubated at 37° C. for 4 days, then medium was removed, wells were rinsed two times with 1 ml of phosphate-buffered saline, and the cells were detached with trypsin-EDTA and counted.

[3] = system: A431 human epidermoid carcinoma cells; assay: Cell growth inhibitory activity (GIA), 125I-deoxyuridine incorporation into DNA; type: cell-based; details: for potency relative to epithelin 2 in inhibiting A431 cells: epithelin 1 vs epithelin 2
Protocol: The cell growth inhibitory activity (GIA) assays were performed in flat-bottom 96 well plates (Falcon 3072). Human epidermoid carcinoma of vulva cells (A431) were used as test cells for GIA. 3.5×10^3 cells in 50 μl of test medium (DMEM supplemented with 5% heat inactivated fetal bovine serum (FBS), penicillin/streptomycin (PS) and glutamine) were placed in all wells except peripheral wells. The peripheral wells received 50 μl PBS. Three hours later, 50 μl of test sample in test medium was added to each well, while control wells received only 50 μl of test medium. Three wells were used for each concentration of test sample. Plates were incubated at 37° C. for 2-3 days. Then, 100 μl of a solution of […] (^125 I-IUdR, 4Ci/mg-0.5 mCi/ml, 2 μl/ml in test medium) was added to each well and plates were incubated at 37° C. After 4-6 hours, the medium was aspirated from the wells, which were then washed once with 200 μl PBS. Then, 200 μl methanol was added to each well, plates were incubated for 10 minutes at room temperature, and the methanol was removed by aspiration. 200 μl of 1M sodium hydroxide was added to each well, the plates were incubated for 30 minutes at 37° C. Sodium hydroxide was removed with titertek plugs (Flow Labs). The plugs were transferred into 12×75 mm plastic tubes and counted in a gamma counter to quantify ^125 I-IUdR incorporation.

[4] = system: human fibroblasts and several other human tumor cells; assay: 125I-deoxyuridine incorporation into DNA, human fibroblasts and other human tumor cells; type: cell-based; details: maximum dose tested: 20 ng/ml epithelin 1, 270 ng/ml epithelin 2
[5] = system: human colon carcinoma cell line HCT 116; assay: 125I-deoxyuridine incorporation into DNA, HCT 116; type: cell-based; details: maximum dose tested: 20 ng/ml epithelin 1, 270 ng/ml epithelin 2
[6] = molecular target: EGF receptors (Homo sapiens, UniProt P00533); assay: Binding of 125I-EGF to its receptors
[7] = system: monkey kidney COS1 cells; assay: 125I-deoxyuridine incorporation into DNA, COS1; type: cell-based
[8] = system: NRK cells; assay: Mitogenic activity on NRK cells in monolayer; type: cell-based, rat
[9] = system: mink lung CCL 64 cells; assay: 125I-deoxyuridine incorporation into DNA, CCL 64; type: cell-based
[10] = system: Balb/MK cells; assay: Growth stimulatory activity (GSA), 125I-deoxyuridine incorporation into DNA of murine keratinocytes; type: cell-based; details: FIG. 15A
Protocol: FIG. 15(A-B). (FIG. 15A) Effect of epithelin 1 and epithelin 2 on the stimulation of ^125 I-deoxyuridine incorporation into DNA of the murine keratinocyte cell line Balb/MK. 2,000-4,000 cells were plated per well in 96 well plates in low-calcium medium containing 5% dialyzed FBS. Then GSA assays were performed as described in Section 6.2., infra. .circle-solid., epithelin 1; o, epithelin 2. (FIG. 15B) Effect of various concentrations of epithelin 2 on epithelin 1 (20 ng/ml) elicited incorporation of ^125 I-deoxyuridine into DNA of Balb/MK cells.
Balb/MK cells were also used as indicator cells in 96 well plates to assess the growth inhibitory activity (GIA) or growth stimulatory activity (GSA) of a test material using ^125 I-deoxyuridine incorporation into DNA as described in the previous section.

[11] = Resistance of bioactivity to chemical, heat and enzyme treatment; type: physicochemical
Protocol: Epithelin 1 and epithelin 2 are resistant to treatment with 1M acetic acid, 1M ammonium hydroxide, 6M urea, 0.01M sodium metaperiodate, to heating at 56° C. for 30 minutes, and to treatment with various glycosidases or lipases. However, epithelin activity was sensitive to reduction, to reduction and 4-vinylpyridine treatment, and to digestion with proteinases such as trypsin, endoproteinase Lys-C, and endoproteinase Glu-C (V8).

B1: epithelin precursor: unprocessed 589-residue rat preprotein (SEQ ID NO:2) with 7 cysteine-rich motifs, expressed in COS cells (protein)
chain: MWILVSWLALVARLVAGTQCPDGQFCPVACCLDQGGANYSCCNPLLDTWPIITSRRLDGSCQIRDHCPDGYSCLLTVSGTSSCCPFSEGVSCDDGQHCCPRGFHCSADGKSCSQISDSLLGAVQCPGSQFECPDSATCCIMIDGSWGCCPMPQASCCEDRVHCCPHGASCDLVHTRCISPTGTHPLLKKFPAQRTNRAVAFPFSVVCPDAKTQCPDDSTCCELPTGKYGCCPMPNAICCSDHLHCCPQDTVCDLIQSKCISKDYTTDLMTKLPGYPVNEVKCDLEVSCPDGYTCCRLNTGAWGCCPFTKAVCCEDHIHCCPAGFQCHTETGTCELGVLQVPWMKKVTASLSLPDPQILKNDVPCDDFSSCPSNNTCCRLSSGDWGCCPIPEAVCCLDHQHCCPQGFKCMDEGYCQKGDRMVAGLEKMPVRQTTLLQHGDIGCDQHTSCPVGQTCCPSLKGSWACCQLPHAVCCEDRQHCCPAGYTCNVKARTCEKDAGSVQPSMDLTFGSKVGNVECGAGHFCHDNQSCCKDSQGGWACCPYVKGVCCRDGRHCCPIGFHCSAKGTKCLRKKTPRWDILLRDPAPRPLL
Question: Which results are given for B1?
Answer: anchorage-independent growth (colony formation in soft agar) of NRK cells [1]: no activity; effect on growth of Balb/MK cells (rodent keratinocytes) [2]: no activity; effect on A431 cells [3]: no activity

B2: epithelin 1: single chain polypeptide of 56 amino acid residues, 12 cysteines, purified from rat kidney; also expressed recombinantly in COS cells (protein)
chain: LPGYPVNEVKCDLEVSCPDGYTCCRLNTGAWGCCPFTKAVCCEDHIHCCPAGFQCHTETGTCEL
Question: Which results are given for B2?
Answer: effect on human fibroblasts and several other human tumor cells [4]: Neither protein exhibited any significant effect; effect on growth of HCT 116 cells [5]: slighly inhibited; effect on binding of 125I-EGF to its receptors [6]: Neither epithelin 1 nor epithelin 2 significantly affected the binding; effect on 125I-deoxyuridine incorporation into DNA [7]: significantly inhibited; anchorage-independent growth (colony formation in soft agar) of NRK cells [1]: induced the anchorage-independent growth of NRK cells in a dose-dependent manner; also recorded: can induce anchorage-independent growth; mitogenic activity on NRK cells in monolayer [8]: exhibited mitogenic activity; effect on growth of Balb/MK cells (rodent keratinocytes) [2]: did not proliferate in the absence of EGF or epithelin 1; effect on 125I-deoxyuridine incorporation into DNA [9]: significantly inhibited; effect on 125I-deoxyuridine incorporation into DNA of Balb/MK cells [10]: stimulated the ^125 I-deoxyuridine incorporation in a dose-dependent manner; effect on A431 cells [3]: inhibitory effect; 50% inhibition of DNA synthesis (125I-deoxyuridine incorporation) ([3]; A431 cells, purified protein, FIG. 14): 12.8 ng/well; IC50 ([3]; A431 cells, read-out: concentration for 50% inhibition of 125I-deoxyuridine incorporation): ~21 nM; potency relative to epithelin 2 in inhibiting A431 cells [3]: ~36 times; potency relative to epithelin 2 in inhibiting A431 cells ([3]; listed as Epithelin 1): about 36 times; Specific Activity ([3]; final purification step Anal. Tsk-250, pool 1b): 20,609 Units/mg; Specific Activity ([3]; final purification step Anal. Tsk-250, pool 2b): 21,048 Units/mg; specific activity of purified protein (GIA) ([3]; one unit = amount inhibiting 125I-deoxyuridine incorporation into A431 cells by 50%): about 2.1×10^4 units/mg protein; calculated specific activity relative to epithelin 2 ([3]; purified proteins): ten; growth inhibitory activity secreted by transfected COS cells ([3]; recombinant, supernatant of cβrEPN1 transfection partially purified on TSK-250, A431 cells): approximately 25 GIA units/100 mm plate; resistance to 1M acetic acid, 1M ammonium hydroxide, 6M urea, 0.01M sodium metaperiodate, heating at 56° C. for 30 minutes, glycosidases or lipases [11]: stable; sensitivity of activity to reduction, reduction and 4-vinylpyridine treatment, and proteinases (trypsin, Lys-C, Glu-C) [11]: sensitive; resistance to 1M acetic acid, 1M ammonium hydroxide, 6M urea, 0.01M sodium metaperiodate, heating at 56° C. for 30 minutes, glycosidases or lipases ([11]; listed as Epithelin 1): resistant
